From article PMC11891782

Experiments:
Assay in all cases: ELISA; dose-response: 1 μg component adsorbed; rLIC_13355 serially diluted 1:1 from 1 μg, 1 h at 37 °C; anti-His mAb detection; KD by non-linear regression, one site specific binding
[1] = target: Laminin-1 from the basement membrane of Engelbreth-Holm-Swarm mouse sarcoma (mouse) (UniProt P19137)
[2] = target: Native plasminogen, purified
[3] = target: Plasma fibronectin

Row | Substance | Kd [1] [nM] | Kd [2] [nM] | Kd [3] [nM]
1 | rLIC_13355, recombinant putative lipoprotein encoded by the gene LIC_13355 of Leptospira interrogans (natural protein) | 18.5 | 11.8 | 
2 | rLIC_13355, recombinant putative lipoprotein encoded by the gene LIC_13355 of Leptospira interrogans (natural protein; other documents disagree on this pair) |  |  | 3490
